Test results as given in patent US12698507B2, “Methods and compositions for conferring and/or enhancing herbicide tolerance using protoporphyrinogen IX oxidase of various cyanobacteria or variant thereof” (FarmHannong Co., Ltd., priority 2019, dated 2026).

Tested on: PPO-deficient BT3 E. coli (ΔPPO)
Test: PPO-inhibiting herbicide tolerance test of PPO variants in E. coli (growth on herbicide-containing LB agar)
Type: cell-based
Conditions: CyPPO19 variants in BT3 (ΔPPO) E. coli; LB agar with 0 to 2,000 μM herbicide, 37° C., dark, 16-20 hours
Outline: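 PPO-deficient BT3 E. coli expressing each variant from pET303 were diluted to OD600=0.5, then 10-fold serially, and spotted on LB-ampicillin agar with 0 to 2,000 μM herbicide. After 16-20 h at 37° C. in the dark, growth relative to wild type was scored from '−' (equivalent) to '+' per 10-fold resistance, max '+++++'.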

Molecule	tolerance level relative to wild type, Carfentrazone	tolerance level relative to wild type, Flumioxazin	tolerance level relative to wild type, Fomesafen	tolerance level relative to wild type, Oxyfluorfen	tolerance level relative to wild type, Saflufenacil	tolerance level relative to wild type, Sulfentrazone	tolerance level relative to wild type, Tiafenacil
CyPPO19 V165C + I408W + F360T: variant of CyPPO19 PPO protein (SEQ ID NO: 1) (protein, Synthetic_PPO of Thermosynechococcus elongatus PKUAC-SCTE542 (comprising GenBank No. CP032152.1)) MSEVDVAIVGGGLSGLSLAWRLQQSAPQYSVVLLEASDRLGGNITTQTAEGFVWELGPNSFAPTPALLQLIAEVGLQSELIRGDRHLPRYIYWRGQLYPLQPTRPLALATSNLLSPWGKVRAALGALGFVPPYLGSGDESVNSFFRRHLGQEVAERLVAPFVSGCYAGDPQQLSAAAAFRRIAQLEKLGGGLIAGALHLRRQQAPKPKPPTSVQMRPGELGSFKEGLAALPRAIAQQLKAPIHLQTPVQEITPDPKGGYLLRSGEQTWRARSVVLATPAYQTAELVAPFQPAIARVLATIPYPTVACVVLAYPAGLGRSVRPGFGVLIPRSQGIRTLGTIWSSCLFPQRTPAGWQVFTSTIGGATDPDLASLSEEAIVQQVQQDLNRLLDLPAAKARLLGMKVWRRAWPQYMVGYPEQWQQVTHALSQTPGLFLCSNYAEGVALGDRVEHGNRTAAAVAAYLSGGQP	+ (‘+’ per each 10-fold resistance)	++++ (‘+’ per each 10-fold resistance)	+ (‘+’ per each 10-fold resistance)	++ (‘+’ per each 10-fold resistance)	++++ (‘+’ per each 10-fold resistance)	+++ (‘+’ per each 10-fold resistance)	++++ (‘+’ per each 10-fold resistance)
CyPPO19 A167I + V305M + F360L: variant of CyPPO19 PPO protein (SEQ ID NO: 1) (protein, Synthetic_PPO of Thermosynechococcus elongatus PKUAC-SCTE542 (comprising GenBank No. CP032152.1)) MSEVDVAIVGGGLSGLSLAWRLQQSAPQYSVVLLEASDRLGGNITTQTAEGFVWELGPNSFAPTPALLQLIAEVGLQSELIRGDRHLPRYIYWRGQLYPLQPTRPLALATSNLLSPWGKVRAALGALGFVPPYLGSGDESVNSFFRRHLGQEVAERLVAPFVSGVYIGDPQQLSAAAAFRRIAQLEKLGGGLIAGALHLRRQQAPKPKPPTSVQMRPGELGSFKEGLAALPRAIAQQLKAPIHLQTPVQEITPDPKGGYLLRSGEQTWRARSVVLATPAYQTAELVAPFQPAIARVLATIPYPTMACVVLAYPAGLGRSVRPGFGVLIPRSQGIRTLGTIWSSCLFPQRTPAGWQVFTSLIGGATDPDLASLSEEAIVQQVQQDLNRLLDLPAAKARLLGMKVWRRAIPQYMVGYPEQWQQVTHALSQTPGLFLCSNYAEGVALGDRVEHGNRTAAAVAAYLSGGQP	+ (‘+’ per each 10-fold resistance)	+++++ (until ‘+++++’ as maximal resistance)	+++ (‘+’ per each 10-fold resistance)	+++ (‘+’ per each 10-fold resistance)	+++++ (until ‘+++++’ as maximal resistance)	+++++ (until ‘+++++’ as maximal resistance)	+++++ (until ‘+++++’ as maximal resistance)
CyPPO19 A167C + V305L + F360V: variant of CyPPO19 PPO protein (SEQ ID NO: 1) (protein, Synthetic_PPO of Thermosynechococcus elongatus PKUAC-SCTE542 (comprising GenBank No. CP032152.1)) MSEVDVAIVGGGLSGLSLAWRLQQSAPQYSVVLLEASDRLGGNITTQTAEGFVWELGPNSFAPTPALLQLIAEVGLQSELIRGDRHLPRYIYWRGQLYPLQPTRPLALATSNLLSPWGKVRAALGALGFVPPYLGSGDESVNSFFRRHLGQEVAERLVAPFVSGVYCGDPQQLSAAAAFRRIAQLEKLGGGLIAGALHLRRQQAPKPKPPTSVQMRPGELGSFKEGLAALPRAIAQQLKAPIHLQTPVQEITPDPKGGYLLRSGEQTWRARSVVLATPAYQTAELVAPFQPAIARVLATIPYPTLACVVLAYPAGLGRSVRPGFGVLIPRSQGIRTLGTIWSSCLFPQRTPAGWQVFTSVIGGATDPDLASLSEEAIVQQVQQDLNRLLDLPAAKARLLGMKVWRRAIPQYMVGYPEQWQQVTHALSQTPGLFLCSNYAEGVALGDRVEHGNRTAAAVAAYLSGGQP	+ (‘+’ per each 10-fold resistance)	+++++ (until ‘+++++’ as maximal resistance)	+ (‘+’ per each 10-fold resistance)	++ (‘+’ per each 10-fold resistance)	+++++ (until ‘+++++’ as maximal resistance)	+ (‘+’ per each 10-fold resistance)	++++ (‘+’ per each 10-fold resistance)
CyPPO19 A167L + V305M + F360T: variant of CyPPO19 PPO protein (SEQ ID NO: 1) (protein, Synthetic_PPO of Thermosynechococcus elongatus PKUAC-SCTE542 (comprising GenBank No. CP032152.1)) MSEVDVAIVGGGLSGLSLAWRLQQSAPQYSVVLLEASDRLGGNITTQTAEGFVWELGPNSFAPTPALLQLIAEVGLQSELIRGDRHLPRYIYWRGQLYPLQPTRPLALATSNLLSPWGKVRAALGALGFVPPYLGSGDESVNSFFRRHLGQEVAERLVAPFVSGVYLGDPQQLSAAAAFRRIAQLEKLGGGLIAGALHLRRQQAPKPKPPTSVQMRPGELGSFKEGLAALPRAIAQQLKAPIHLQTPVQEITPDPKGGYLLRSGEQTWRARSVVLATPAYQTAELVAPFQPAIARVLATIPYPTMACVVLAYPAGLGRSVRPGFGVLIPRSQGIRTLGTIWSSCLFPQRTPAGWQVFTSTIGGATDPDLASLSEEAIVQQVQQDLNRLLDLPAAKARLLGMKVWRRAIPQYMVGYPEQWQQVTHALSQTPGLFLCSNYAEGVALGDRVEHGNRTAAAVAAYLSGGQP	+ (‘+’ per each 10-fold resistance)	+++++ (until ‘+++++’ as maximal resistance)	+++ (‘+’ per each 10-fold resistance)	+++ (‘+’ per each 10-fold resistance)	+++++ (until ‘+++++’ as maximal resistance)	+++++ (until ‘+++++’ as maximal resistance)	++++ (‘+’ per each 10-fold resistance)
CyPPO19 A167C + L327T + F360I: variant of CyPPO19 PPO protein (SEQ ID NO: 1) (protein, Synthetic_PPO of Thermosynechococcus elongatus PKUAC-SCTE542 (comprising GenBank No. CP032152.1)) MSEVDVAIVGGGLSGLSLAWRLQQSAPQYSVVLLEASDRLGGNITTQTAEGFVWELGPNSFAPTPALLQLIAEVGLQSELIRGDRHLPRYIYWRGQLYPLQPTRPLALATSNLLSPWGKVRAALGALGFVPPYLGSGDESVNSFFRRHLGQEVAERLVAPFVSGVYCGDPQQLSAAAAFRRIAQLEKLGGGLIAGALHLRRQQAPKPKPPTSVQMRPGELGSFKEGLAALPRAIAQQLKAPIHLQTPVQEITPDPKGGYLLRSGEQTWRARSVVLATPAYQTAELVAPFQPAIARVLATIPYPTVACVVLAYPAGLGRSVRPGFGVTIPRSQGIRTLGTIWSSCLFPQRTPAGWQVFTSIIGGATDPDLASLSEEAIVQQVQQDLNRLLDLPAAKARLLGMKVWRRAIPQYMVGYPEQWQQVTHALSQTPGLFLCSNYAEGVALGDRVEHGNRTAAAVAAYLSGGQP	+ (‘+’ per each 10-fold resistance)	++++ (‘+’ per each 10-fold resistance)	++ (‘+’ per each 10-fold resistance)	+++ (‘+’ per each 10-fold resistance)	+++ (‘+’ per each 10-fold resistance)	++++ (‘+’ per each 10-fold resistance)	++++ (‘+’ per each 10-fold resistance)
CyPPO19 A167L + L327T + F360M: variant of CyPPO19 PPO protein (SEQ ID NO: 1) (protein, Synthetic_PPO of Thermosynechococcus elongatus PKUAC-SCTE542 (comprising GenBank No. CP032152.1)) MSEVDVAIVGGGLSGLSLAWRLQQSAPQYSVVLLEASDRLGGNITTQTAEGFVWELGPNSFAPTPALLQLIAEVGLQSELIRGDRHLPRYIYWRGQLYPLQPTRPLALATSNLLSPWGKVRAALGALGFVPPYLGSGDESVNSFFRRHLGQEVAERLVAPFVSGVYLGDPQQLSAAAAFRRIAQLEKLGGGLIAGALHLRRQQAPKPKPPTSVQMRPGELGSFKEGLAALPRAIAQQLKAPIHLQTPVQEITPDPKGGYLLRSGEQTWRARSVVLATPAYQTAELVAPFQPAIARVLATIPYPTVACVVLAYPAGLGRSVRPGFGVTIPRSQGIRTLGTIWSSCLFPQRTPAGWQVFTSMIGGATDPDLASLSEEAIVQQVQQDLNRLLDLPAAKARLLGMKVWRRAIPQYMVGYPEQWQQVTHALSQTPGLFLCSNYAEGVALGDRVEHGNRTAAAVAAYLSGGQP	+ (‘+’ per each 10-fold resistance)	+++++ (until ‘+++++’ as maximal resistance)	+++ (‘+’ per each 10-fold resistance)	+++ (‘+’ per each 10-fold resistance)	+++++ (until ‘+++++’ as maximal resistance)	+++++ (until ‘+++++’ as maximal resistance)	+++++ (until ‘+++++’ as maximal resistance)
